Consider three molecules from article PMC7890063, “Bioinformatics-aided identification, characterization and applications of mushroom linalool synthases” (Communications Biology, 2021).

For series [1], the target named is T1, Sc.LNS (Streptomyces clavuligerus, UniProt D5SL78).
T1 construct: gene SCLAV_p1185; codon-optimised gene in pET-11a, expressed in E. coli with mevalonate pathway, not purified
T1 sequence (D5SL78 1-329): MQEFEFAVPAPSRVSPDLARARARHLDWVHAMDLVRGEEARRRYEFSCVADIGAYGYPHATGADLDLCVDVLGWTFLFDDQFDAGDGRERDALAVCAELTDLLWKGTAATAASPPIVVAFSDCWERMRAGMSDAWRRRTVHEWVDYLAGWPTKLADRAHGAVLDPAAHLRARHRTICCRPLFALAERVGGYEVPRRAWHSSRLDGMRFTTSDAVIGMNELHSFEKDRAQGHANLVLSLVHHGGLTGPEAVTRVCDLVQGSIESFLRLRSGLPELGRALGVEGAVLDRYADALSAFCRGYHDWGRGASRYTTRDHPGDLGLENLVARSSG
Put plainly: product formation in E. coli, GC-MS. It is filed as cell-based. The note with it: E. coli with mevalonate pathway; product nerolidol.

For series [2], the system named is Ap.LS (Agrped1_689675). The series is described as follows: PPi release, EnzChek pyrophosphate assay. To be noted: 37 °C, 1 h; enzyme 71.2% pure; product (R)-linalool; read-out: Monoterpene synthase. It is filed as biochemical, Agrocybe pediades. From the text: PPi release, EnzChek pyrophosphate assay on Ap.LS (Agrped1_689675)
Substrate in series [3]: CC(C)=CCC/C(C)=C/CC/C(C)=C/CO[P@@](=O)(O)OP(=O)(O)O
The series is described as follows: PPi release, EnzChek pyrophosphate assay. To be noted: 37 °C, 1 h, enzyme 16.3% pure, product nerolidol. The series is classed as biochemical, Cyclocybe aegerita. From the text:
(§1) PPi release, EnzChek pyrophosphate assay on Aa.LNS (AAE3_109435)

Substrate in series [4]: CC(C)=CCC/C(C)=C/COP(=O)(O)OP(=O)(O)O
The series is described as follows: PPi release, EnzChek pyrophosphate assay. It is filed as biochemical, Cyclocybe aegerita. To be noted: 37 °C, 1 h, enzyme 16.3% pure, product (R)-linalool.
Source text: as §1

With `CC(C)=CCC/C(C)=C/CC/C(C)=C/COP(=O)(O)OP(=O)(O)O` [(E,E)-FPP], in series [1], the “product formation in E. coli, GC-MS” value is “Sc.LNS produced a larger amount of nerolidol than linalool in E. coli”.
In the case of `CC(C)=CCC/C(C)=C/COP(=O)(O)OP(=O)(O)O` [GPP], the Km in series [2] was 3.8 ± 0.7 µM.

B1: Aa.LNS (AAE3_109435) (Cyclocybe aegerita) (protein)
chain: MHSSTQLFTHSPTKMQIILPDLLCSWGYKGFLNPHYEGAKAESNTWIRPLVVKLFDERGQKAFAKDYTGLLASMTYPHHNKEFLCVACDMMNLFFVYDEYTDITPPETAQRLAKIVVNAMRNPDEIAALGEDSIGTMTKQFWRRAMTLLPPNGCNSESCIQHFIDYTEEYLTAVTREACDRSSGSVHAVKDYLAMRRATSGAGLMVGLLEFGLDLPEEVMKHEVIQELSTGAIDMYCLLNDMHSYASELSSGQASHNVITVVMHERNLSLQEAFDWLASYAAGVVKGFKTNLNRVPSFSELEDHSLHGEGMLRDRIQRYIDGLGQAVRAEDDWAFETTRYHGQNGPQIKLTRMLTIRPQVKDNYAKQAPRVEAPERPMLLEVRS
With B1, in series [3], the Km came out at 9.0 ± 2.3 µM, the kcat came out at 0.055 ± 0.005 s⁻¹ and the kcat/Km stood at 6670 M⁻¹ s⁻¹. For the same molecule, in series [4], the Km stood at 6.7 ± 4.6 µM, the kcat is 0.00833 ± 0.00167 s⁻¹ and the kcat/Km came to 1670 M⁻¹ s⁻¹.
